Measurements as given in US8765433B2, “Alcohol dehydrogenases (ADH) useful for fermentive production of lower alkyl alcohols” (Butamax Advanced Biofuels LLC, priority 2009, dated 2014).

Assays:
[1] = Cofactor specificity in isobutyraldehyde reduction reactions; type: biochemical; conditions: for COFACTOR PREFERENCE: isobutyraldehyde reduction, NADH or NADPH as cofactor
Experimental: (§1) As a routine practice, the crude extracts and purified proteins were assayed for butanol oxidation activity, in order to ensure that the recombinant proteins were active throughout the purification process. […] Alcohol oxidation activities were carried out in 50 mM sodium phosphate buffer at pH 8.8 and aldehyde reduction reactions were assayed in 190 mM potassium phosphate buffer at pH 7.0. Depending on the nature of reaction being carried out, the enzyme and cofactor stocks were diluted in the reaction buffers at the respective pHs. Either buffer or cell extract prepared from the proprietary E. coli strain (with no ADH plasmid) was used as the negative control for assays with purified protein and cell-free extracts, respectively.
In initial experiments, there were insufficient levels of protein expression with EhADH1 and RpADH8. […] It is believed that one of skill in the art could further optimize expression and assay conditions for these candidates. Sufficient amounts of active protein could be purified with all other enzymes for which data are presented. […]

[2] = Isobutanol oxidation assay; type: biochemical; conditions: Table 8
Experimental: as §1
Kinetic constants of the ADH enzymes were calculated and compared to identify those candidate ADH enzymes with the most desirable properties for the conversion of isobutyraldehyde to isobutanol in the last step of the engineered pathway for isobutanol production. The assays for determining the kinetic constants were carried out using initial rates from the assays described above. […] The concentration of a given enzyme was such that it was conducive for the measurement of initial velocities over a 1-min time course. For each enzyme, Michaelis-Menten plots were generated with a broad range of substrate concentrations. Rough estimates of KM were obtained, based on which the assays were redesigned so as to use substrate concentrations in the range 0.5 to 10 times the KM value, to be able to obtain the appropriate kinetic constants. […] When calculating the KI for isobutanol, the same reactions were carried out in the presence of varying concentrations of isobutanol (generally 0-535 mM) in the reaction (see FIG. 7, for example). Reactions with isobutanol substrate were performed at 30° C. in 50 mM Sodium phosphate buffer, pH 8.8, containing 7.5 mM NAD. The Enzyme kinetics module (Version 1.3) of SigmaPlot 11 (Systat Software, Inc.) was used to fit data to Michaelis-Menten equations and calculate the kinetic constants. The kcat/KM is derived from the individual numbers of kcat and KM and not an experimentally determined value. The ratios of the KM, KI, and kcat/KM for each candidate enzyme as compared to the same parameter for SadB are given in Table 9.

B1: TADH: Thermus sp. ATN1 ADH, SEQ ID NO: 33 (protein)
chain: MRAVVFENKERVAVKEVNAPRLQHPLDALVRVHLAGICGSDLHLYHGKIPVLPGSVLGHEFVGQVEAVGEGIQDLQPGDWVVGPFHIACGTCPYCRRHQYNLCERGGVYGYGPMFGNLQGAQAEILRVPFSNVNLRKLPPNLSPERAIFAGDILSTAYGGLIQGQLRPGDSVAVIGAGPVGLMAIEVAQVLGASKILAIDRIPERLERAASLGAIPINAEQENPVRRVRSETNDEGPDLVLEAVGGAATLSLALEMVRPGGRVSAVGVDNAPSFPFPLASGLVKDLTFRIGLANVHLYIDAVLALLASGRLQPERIVSHYLPLEEAPRGYELFDRKEALKVLLVVRG
modifications: Thermus sp. ATN1
Other enzymatic properties and cofactor preference ([1]; Table 7): NADH specific
COFACTOR PREFERENCE [1]: NADH

B2: PzADH: Phenylobacterium zucineum HLK1 ADH, SEQ ID NO: 34 (protein)
chain: MKALVYGGPGQKSLEDRPKPELQAPGDAIVRIVKTTICGTDLHILKGDVATCAPGRILGHEGVGIVDSVGAAVTAFRPGDHVLISCISACGKCDYCRRGMYSHCTTGGWILGNEIDGTQAEYVRTPHADTSLYPVPAGADEEALVMLSDILPTGFECGVLNGKVAPGGTVAIVGAGPIGLAALLTAQFYSPAEIIMIDLDDNRLGIARQFGATQTINSGDGRAAETVKALTGGRGVDTAIEAVGVPATFELCQDLVGPGGVIANIGVHGRKVDLHLDRLWSQNIAITTRLVDTVSTPMLLKTVQSRKLDPSQLITHRFRLDEILAAYDTFARAADTQALKVIIAA
modifications: Phenylobacterium zucineum HLK1
conversion of isobutanol to isobutyraldehyde [2]: No measureable
Other enzymatic properties and cofactor preference ([1]; Table 8): NADH specific
COFACTOR PREFERENCE [1]: NADH

B3: RnADH1: Rattus norvegicus ADH1, SEQ ID NO: 32 (protein, listed as Rattus norvegicus)
chain: MSTAGKVIKCKAAVLWEPHKPFTIEDIEVAPPKAHEVRIKMVATGVCRSDDHAVSGSLFTPLPAVLGHEGAGIVESIGEGVTCVKPGDKVIPLFSPQCGKCRICKHPESNLCCQTKNLTQPKGALLDGTSRFSCRGKPIHHFISTSTFSQYTVVDDIAVAKIDAAAPLDKVCLIGCGFSTGYGSAVQVAKVTPGSTCAVFGLGGVGLSVVIGCKTAGAAKIIAVDINKDKFAKAKELGATDCINPQDYTKPIQEVLQEMTDGGVDFSFEVIGRLDTMTSALLSCHSACGVSVIVGVPPSAQSLSVNPMSLLLGRTWKGAIFGGFKSKDAVPKLVADFMAKKFPLEPLITHVLPFEKINEAFDLLRAGKSIRTVLTF
Other enzymatic properties and cofactor preference ([1]; Table 7): NADH specific
COFACTOR PREFERENCE [1]: NADH

B4: MsADH: Methylocella silvestris BL2 ADH, SEQ ID NO: 35 (protein)
chain: MKALVYHGPGQKALEERPKPQIEASGDAIVKIVKTTICGTDLHILKGDVATCAPGRILGHEGVGIIDSVGAGVTAFQPGDRVLISCISSCGKCDYCRRGLYSHCTTGGWILGNEIDGTQAEYVRTPHADTSLYRIPAGADEEALVMLSDILPTGFECGVLNGKVEPGSTVAIVGAGPIGLAALLTAQFYAPGDIIMIDLDDNRLDVARRFGATHTINSGDGKAAEAVKALTGGIGVDTAIEAVGIPATFLLCEDIVAPGGVIANVGVHGVKVDLHLERLWAHNITITTRLVDTVTTPMLLKTVQSKKLDPLQLITHRFTLDHILDAYDTFSRAADTKALKVIVSA
modifications: Methyloceclla silvestris BL2
conversion of isobutanol to isobutyraldehyde [2]: No measureable
Other enzymatic properties and cofactor preference ([1]; Table 8): NADH specific
COFACTOR PREFERENCE [1]: NADH

B5: ScADH7: Saccharomyces cerevisiae ADH7 alcohol dehydrogenase, SEQ ID NO: 23 (protein, listed as Saccharomyces cerevisiae)
chain: MLYPEKFQGIGISNAKDWKHPKLVSFDPKPFGDHDVDVEIEACGICGSDFHIAVGNWGPVPENQILGHEIIGRVVKVGSKCHTGVKIGDRVGVGAQALACFECERCKSDNEQYCTNDHVLTMWTPYKDGYISQGGFASHVRLHEHFAIQIPENIPSPLAAPLLCGGITVFSPLLRNGCGPGKRVGIVGIGGIGHMGILLAKAMGAEVYAFSRGHSKREDSMKLGADHYIAMLEDKGWTEQYSNALDLLVVCSSSLSKVNFDSIVKIMKIGGSIVSIAAPEVNEKLVLKPLGLMGVSISSSAIGSRKEIEQLLKLVSEKNVKIWVEKLPISEEGVSHAFTRMESGDVKYRFTLVDYDKKFHK
Other enzymatic properties and cofactor preference ([1]; Table 7): NADPH specific
COFACTOR PREFERENCE [1]: NADPH

B6: CbADH: Clostridium beijerinckii ADH, SEQ ID NO: 29 (protein, listed as Clostridium beijerinckii)
chain: MKGFAMLGINKLGWIEKERPVAGSYDAIVRPLAVSPCTSDIHTVFEGALGDRKNMILGHEAVGEVVEVGSEVKDFKPGDRVIVPCTTPDWRSLEVQAGFQQHSNGMLAGWKFSNFKDGVFGEYFHVNDADMNLAILPKDMPLENAVMITDMMTTGFHGAELADIQMGSSVVVIGIGAVGLMGIAGAKLRGAGRIIGVGSRPICVEAAKFYGATDILNYKNGHIVDQVMKLTNGKGVDRVIMAGGGSETLSQAVSMVKPGGIISNINYHGSGDALLIPRVEWGCGMAHKTIKGGLCPGGRLRAEMLRDMVVYNRVDLSKLVTHVYHGFDHIEEALLLMKDKPKDLIKAVVIL
Other enzymatic properties and cofactor preference ([1]; Table 7): NADPH specific
COFACTOR PREFERENCE [1]: NADPH

B7: HLADH: Horse-liver ADH (A-6128) purchased from Sigma; control polypeptide, SEQ ID NO: 21 (protein, listed as Equus caballus)
chain: MSTAGKVIKCKAAVLWEEKKPFSIEEVEVAPPKAHEVRIKMVATGICRSDDHVVSGTLVTPLPVIAGHEAAGIVESIGEGVTTVRPGDKVIPLFTPQCGKCRVCKHPEGNFCLKNDLSMPRGTMQDGTSRFTCRGKPIHHFLGTSTFSQYTVVDEISVAKIDAASPLEKVCLIGCGFSTGYGSAVKVAKVTQGSTCAVFGLGGVGLSVIMGCKAAGAARIIGVDINKDKFAKAKEVGATECVNPQDYKKPIQEVLTEMSNGGVDFSFEVIGRLDTMVTALSCCQEAYGVSVIVGVPPDSQNLSMNPMLLLSGRTWKGAIFGGFKSKDSVPKLVADFMAKKFALDPLITHVLPFEKINEGFDLLRSGESIRTILTF
COFACTOR PREFERENCE [1]: NADH

B8: AbADH: Acinetobacter baumannii AYE ADH, SEQ ID NO: 36 (protein)
chain: MENIMKAMVYYGDHDIRFEERKKPELIDPTDAIIKMTKTTICGTDLGIYKGKNPEIEQKEQEKNGSFNGRILGHEGIGIVEQIGSSVKNIKVGDKVIVSCVSRCGTCENCAKQLYSHCRNDGGWIMGYMIDGTQAEYVRTPFADTSLYVLPEGLNEDVAVLLSDALPTAHEIGVQNGDIKPGDTVAIVGAGPVGMSALLTAQFYSPSQIIMIDMDENRLAMAKELGATDTINSGTEDAIARVMELTNQRGVDCAIEAVGIEPTWDICQNIVKEGGHLANVGVHGKSVNFSLEKLWIKNLTITTGLVNANTTGMLLKSCCSGKLPMEKLATHHFKFNEIEKAYDVFINAAKEKAMKVIIDF
modifications: Acinetobacter baumannii AYE
conversion of isobutanol to isobutyraldehyde [2]: No measureable
Other enzymatic properties and cofactor preference ([1]; Table 8): NADH specific
COFACTOR PREFERENCE [1]: NADH

B9: GbADH: Geobacillus sp. WCH70 ADH, SEQ ID NO: 37 (protein)
chain: MKALTYLGPGKKEVMEKPKPKIEKETDAIVKITKTTICGTDLHILSGDVPTVEEGRILGHEGVGIIEEVGSGVKNFKKGDRVLISCITSCGKCENCKKGLYAHCEDGGWILGHLIDGTQAEYVRIPHADNSLYPIPEGVDEEALVMLSDILPTGFEIGVLNGKVQPGQTVAIIGAGPVGMAALLTAQFYSPAEIIMVDLDDNRLEVAKKFGATQVVNSADGKAVEKIMELTGGKGVDVAMEAVGIPVTFDICQEIVKPGGYIANIGVHGKSVEFHIEKLWIRNITLTTGLVNTTSTPMLLKTVQSKKLKPEQLITHRFAFADIMKAYEVFGNAAKEKALKVIISND
modifications: Geobacillus sp. WCH70
conversion of isobutanol to isobutyraldehyde [2]: No measureable
Other enzymatic properties and cofactor preference ([1]; Table 8): NADPH specific
COFACTOR PREFERENCE [1]: NADPH

B10: SadB: Achromobacter xylosoxidans Secondary Alcohol Dehydrogenase B; control polypeptide, SEQ ID NO: 26 (protein)
chain: MKALVYHGDHKISLEDKPKPTLQKPTDVVVRVLKTTICGTDLGIYKGKNPEVADGRILGHEGVGVIEEVGESVTQFKKGDKVLISCVTSCGSCDYCKKQLYSHCRDGGWILGYMIDGVQAEYVRIPHADNSLYKIPQTIDDEIAVLLSDILPTGHEIGVQYGNVQPGDAVAIVGAGPVGMSVLLTAQFYSPSTIIVIDMDENRLQLAKELGATHTINSGTENVVEAVHRIAAEGVDVAIEAVGIPATWDICQEIVKPGAHIANVGVHGVKVDFEIQKLWIKNLTITTGLVNTNTTPMLMKVASTDKLPLKKMITHRFELAEIEHAYQVFLNGAKEKAMKIILSNAGAA
modifications: Achromobacter xylosoxidans
COFACTOR PREFERENCE [1]: NADH
